From patent US6303317A, “Peptide probes and methods for making the same” (The Regents of the University of California, priority 1998, dated 2001)
Read-outs that look alike come from different tables or passages of the source. Where no end group is shown, it is not given here. [ ]: non-standard residue; d: D form. biotin (long spacer arm) = biotin with long spacer arm, attached via N-hydroxysuccinimidyl ester of biotin; Nle = CCCC[C@H](N)C(=O)O

Legend:
APC-55 = target: T1, APC-55 (Homo sapiens, UniProt P25054); test: Fluorescence energy transfer titration (dissociation constant of heterodimer); type: binding
T1 construct: APC-55, a peptide corresponding to amino acids 2-55 of human APC; made in house; host or cells: E. coli BL21 (DE3), pAED4 plasmid
T1 sequence (P25054 2-55): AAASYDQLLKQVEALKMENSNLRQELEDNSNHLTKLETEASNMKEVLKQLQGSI
Method: Based on the sensitivity of the fluorescence method used, the dissociation constant of the APC-55/Anti-APCp2 heterodimer was estimated to be less than 10 nM. […] Because the amino-terminal, coiled coil sequence targeted by anti-APCp1 occurs in tumor-associated truncation mutants, the distinct electrophoretic mobilities of the species detected by the antisense peptide distinguish wild-type from tumorigenic APC variants (FIG. 9).

[1] = target: T2, N-terminal APC coiled coil (APC-55) (Homo sapiens, UniProt P25054); test: Thermal denaturation followed by circular dichroism at 222 nm (apparent Tm); type: physicochemical; details: for Apparent Tm: 10 mM phosphate pH 7.0 and 100 mM potassium flouride, midpoint of CD thermal denaturation at 222 nm
T2 construct: APC-55, a peptide corresponding to amino acids 2-55 of human APC; made in house; host or cells: E. coli BL21 (DE3), pAED4 plasmid
T2 sequence (P25054 2-55): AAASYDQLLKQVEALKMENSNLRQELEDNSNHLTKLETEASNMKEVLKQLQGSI
Method: Circular dischroism investigations are well known in the art. For example, such an investigation may be performed using a 1 cm or 1 mm cuvette (Helma or Uvonic) on an Aviv CD spectrophotometer (model 60DS or model 62DS) equipped with a thermoelectric controller. The buffer used for all CD experiments except pH titrations is 100 mM KF, 10 mM potassium phosphate (pH 7.0). All peptide concentrations may be determined by tyrosine absorbance at 275.5 nm in 6.0 M GuHCl PH 6.5 (Schwarz/Mann Biotech Ultra-Pure grade) using an Aviv UV/VIS spectrophotometer (model 1 BDS or 14 DS). The molar ellipticity at 222 nm, 5° C., is measured for the homo- and heterodimers. The CD values (i.e., deg cm^2 and dmol^-1) indicate % helicity of the peptides. Thermal melting curves are determined by monitoring the CD signal at 222 nm as a function of temperature. The pH dependence of stability may be measured in 100 mM KF, 10 mM potassium phosphate at various pH values. GuHCl (Schwarz/Mann Biotech Ultra-Pure grade) (e.g., 2M) may be included in the buffer used for monitoring the pH dependence of stability. pH stability is indicated if the same overall shape of the pH dependence curve is obtained in the absence as well as the presence of GuHCl. It is also desirable to determine the reversibility for all thermal melts. The absence of reversibility of a melting curve above a certain pH value indicates chemical modification and/or degradation of the polypeptide. Such modification and/or degradation may be confirmed using HPLC.
Thermal denaturation is used to determine Tm. The term "Tm " refers to the temperature at which the fraction of a polypeptide which is unfolded is equal to the fraction folded (ΔG=0). The Tm is determined by curve fitting a thermal denaturation curve (described supra) to an equation known in the art (see, O'Shea et al (1992) Cell 68:699-708) using a nonlinear least squares-fitting program (e.g., Kaledagraph, Synergy Software). Alternatively, the Tm for each polypeptide may also be determined by taking the first derivative of the CD signal (β) with respect to temperature^-1 (temperature in K) and finding the minimum of this function (Cantor and Schimmel, 1980). Similarly, denaturation induced by additives such as urea or GuHCl can be followed by circular dichroism. These measurements can yield the Cm, i.e., the denaturant concentration where ΔG=0. Linear extrapolation of the transition to zero denaturant can yield the equilibrium constant in aqueous buffer. This can be converted to a free energy of association using the formula ΔG=--RTlnK [Cantor and Schimmel (1980) supra).
CD spectra (180-300 nm) for the APC-55 and anti-APCp1 peptides alone and in combination were recorded in a 1 mm quartz cuvette at 5° C. using an Aviv 62DS circular dichroism spectrophotometer. The concentrations of peptide stocks were determined optically by the method of Gill and vonHippel, Anal. Biochem 182:319-326 (1989). Peptide stocks were diluted in 10 mM KPO4, 100 mM KF, pH 7.0. Thermal denaturations were carried out in steps of 1-3° C. with 2 minutes for equilibration and one minute for data averaging. Thermal transitions were >95% reversible. The results in FIGS. 3 and 4 obtained with the APC-55 alone are shown by open circles (.largecircle.), with the anti-APCp1 alone by squares (.quadrature.), and with an equimolar mixture of APC-55 and anti-APCp1 with closed circles (.circle-solid.).

[2] = thermal stability at 20 µM peptide in PBS (pH 7.0), peptide alone
[3] = thermal denaturation by CD, peptide alone, 20.0 µM
[4] = thermal denaturation by CD at 222 nm, peptide alone (homo-oligomer), 75.0 µM
[5] = thermal denaturation by CD at 222 nm, peptide alone (homo-oligomer), 8.0 µM
[6] = thermal denaturation by CD, peptide alone, 8.0 µM
[7] = thermal denaturation by CD, peptide alone, 75.0 µM
[8] = thermal denaturation by CD at 222 nm, peptide alone (homo-oligomer), 20.0 µM
[9] = target: T3, APC-55, a peptide corresponding to amino acids 2-55 of human APC (human); test: thermal denaturation by CD at 222 nm, equimolar mixture, 75.0 µM
T3 peptide: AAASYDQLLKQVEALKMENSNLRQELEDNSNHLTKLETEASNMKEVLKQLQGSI
Method: (§1) CD spectra (180–300 nm) for the APC-55 and anti-APCp1 peptides alone and in combination were recorded in a 1 mm quartz cuvette at 5° C. using an Aviv 62DS circular dichroism spectrophotometer. The concentrations of peptide stocks were determined optically by the method of Gill and vonHippel, *Anal. Biochem* 182:319–326 (1989). Peptide stocks were diluted in 10 mM KPO_4, 100 mM KF, pH 7.0. Thermal denaturations were carried out in steps of 1–3° C. with 2 minutes for equilibration and one minute for data averaging. Thermal transitions were >95% reversible. The results in FIGS. 3 and 4 obtained with the APC-55 alone are shown by open circles (○), with the anti-APCp1 alone by squares (□), and with an equimolar mixture of APC-55 and anti-APCp1 with closed circles (●).

[10] = target: T3, APC-55, a peptide corresponding to …; test: thermal denaturation by CD at 222 nm, equimolar mixture, 8.0 µM
Method: as §1

[11] = target: T3, APC-55, a peptide corresponding to …; test: thermal denaturation followed by circular dichroism at 222 nm
Method: as §1

[12] = target: T3, APC-55, a peptide corresponding to …; test: thermal denaturation by CD at 222 nm, equimolar mixture, 20.0 µM
Method: as §1

[13] = target: T3, APC-55, a peptide corresponding to …; test: native acrylamide gel electrophoresis, judged by the sensitivity of detection
Method: Native acrylamide gel electrophoresis was used as a direct test of heterodimer specificity. Samples of the individual peptides and an equimolar mixture of the peptides were prepared at 0.6 mM and diluted two-fold in 0.2% (w/v) methyl green, 20% glycerol, 750 mM beta-alanine acetate pH 6.0. Gels contained a separating gel of 7.5% acrylamide in 375 mM beta-alanine acetate, pH 4.0. Samples were run for 2.5 hours at 100 volts, and the gels were fixed with 2% glutaraldehyde and stained for at least 1 hour in 0.2% Coomassie Brilliant Blue in 50% methanol, 10% acetic acid (v/v). Destaining was carried out overnight in the same solvent lacking the dye.
The data presented herein was surprising in view of the prior art reports of the sufficiency of e':g interactions for dimerization specificity of coiled coil proteins [O'Shea et al. (1992), supra; O'Shea et al. (1993) supra; Krylov et al (1994) EMBO J. 13:2849–2861].

[14] = target: T3, APC-55, a peptide corresponding to …; test: thermal stability at 20 µM peptide in PBS (pH 7.0), mixture
[15] = target: T3, APC-55, a peptide corresponding to …; test: thermal denaturation by CD, equimolar mixture, 20.0 µM
[16] = target: T3, APC-55, a peptide corresponding to …; test: thermal denaturation by CD, equimolar mixture, 75.0 µM
[17] = target: T3, APC-55, a peptide corresponding to …; test: thermal denaturation by CD, equimolar mixture, 8.0 µM
[18] = target: T3, APC-55, a peptide corresponding to …; test: fluorescence energy transfer titration
[19] = target: GST-APC-H1 (GST fused to the first 55 amino acids of the human APC protein, heptad repeat 1) (human, UniProt P08515 = GST); test: Western blot of bacterial lysates, 5 nM biotinylated peptide, streptavidin-HRP
Method: (§2) Bacterial lysates containing GST, GST-APC-H1, GST-APC-H1-4 and GST-APC-probe were diluted 1:10 in cell lysates from induced BL21 cells containing no APC sequences and adjusted to a final protein concentration of 0.5 mg/ml in sample buffer. Five micrograms of each sample was electrophoresed on a precast 10% Tricine-SDS polyacrylamide gel (Novex) as described by Schager and von-Jagow (1987). Proteins were transferred to 0.45 micron nitrocellulose for 2 hours at 100 V, 4° C., in transfer buffer (25 mM Tris, 192 mM glycine, 20% methanol, 0.1% SDS).
(§3) The anti-APCp1 peptide was biotinylated by removing the F-moc protecting group from the N-terminus of the peptide on the synthesis resin and incubating the resin with the N-hydroxy-succinimidyl ester of biotin containing a long spacer arm (Pierce, Catalog #21336) in dimethylformamide. The biotinylated anti-APCp1 contains Met (instead of Nrl) as well as an additional Leu8Val mutation and Glu-Asp-Glu (wild-type APC sequence) at the peptide C-terminus. This probe was indistinguishable from anti-APCp1 in native gel experiments and CD experiments (data not shown). Blots were blocked for 1 hour in PNT buffer (10 mM phosphate, pH 8.0, 175 mM NaCl, 0.1% Tween-20) containing 0.5% bovine serum albumin. After blocking, blots were probed for I hour at 42° C. with 5 nM biotinylated antiAPC peptide in PNT buffer containing 1% BSA. […]

[20] = target: GST-APC-H1-4 (GST fused to the N-terminal 373 amino acids of the APC protein, heptad repeats 1-4) (human, UniProt P08515 = GST); test: as above
Method: as §2, §3

coumarin-labeled APC-55 = target: T4, coumarin-labeled APC-55 (human, coumarin label (site not stated)); test: fluorescence energy transfer measurements
T4 peptide: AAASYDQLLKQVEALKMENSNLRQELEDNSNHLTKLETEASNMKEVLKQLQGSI

Molecule: [Nle]AAKGDQLKKEVEALEYENSNLRKKLEDHKKKLTKLKTEISNAKK[Nle]LKQLYASI [anti-APCp2]
- Kd (APC-55; estimated from the sensitivity of the fluorescence method, read-out: dissociation constant of the APC-55/Anti-APCp2 heterodimer): < 10 nM

Molecule: MAAKGDQLKKEVEALEYENSNLRKKLEDHKKKLTKLKTEISNAKKMLKQLYASI [anti-APCp1]
- Kd (APC-55; fluorescein- and coumarin-labeled anti-APCp1 and APC-55, data not shown, read-out: Kd of the heterodimer (upper limit)): ≤ 10 nM

Molecule: APC-55: peptide corresponding to amino acids 2-55 of human APC; target coiled coil; MAAASYDQLLKQVEALKMENSNLRQELEDNSNHLTKLETEASNMKEVLKQLQGSI
- Apparent Tm (+/- 1.25° C.) ([1]; 8.0 μM peptide (Table 9)): 36.3 °C
- Apparent Tm ([1]; 8.0 μM peptide): 36.3 °C
- Apparent Tm (+/- 1.25° C.) ([1]; 20.0 μM peptide (Table 9)): 40.0 °C
- Tm (thermal stability) ([1]; 20 μM peptide concentration in PBS (pH 7.0)): 40.0 °C
- Apparent Tm ([1]; 20.0 μM peptide): 40.0 °C
- Apparent Tm (+/- 1.25° C.) ([1]; 75.0 μM peptide (Table 9)): 46.5 °C
- Apparent Tm ([1]; 75.0 μM peptide): 46.5 °C

B1: APC-55, a peptide corresponding to amino acids 2-55 of human APC (protein)
chain: AAASYDQLLKQVEALKMENSNLRQELEDNSNHLTKLETEASNMKEVLKQLQGSI
- Tm [2]: 40 ° C.
- Apparent Tm [3]: 40 ° C.
- Apparent Tm [4]: 46.5 ° C.
- Apparent Tm [5]: 36.3 ° C.
- Apparent Tm [6]: 36.3 ° C.
- Apparent Tm [7]: 46.5 ° C.
- Apparent Tm [8]: 40 ° C.

B2: anti-APCp1 polypeptide probe (designed binder)
peptide: MAAKGDQLKKEVEALEYENSNLRKKLEDHKKKLTKLKTEISNAKKMLKQLYASI
- Tm [2]: 52.3 ° C.
- Apparent Tm [9]: 64.7 ° C.
- Apparent Tm [10]: 50.6 ° C.
- increase in the thermal melting transition [11]: > 10 ° C.
- Apparent Tm [4]: 59.6 ° C.
- Apparent Tm [12]: 54.3 ° C.
- Apparent Tm [5]: 45 ° C.
- preference for heterodimer over homodimers (fold) [13]: ≥ 100 fold
- Apparent Tm [8]: 52.3 ° C.
- Tm [14]: 54.3 ° C.

B3: anti-APCp2 polypeptide probe (designed binder)
peptide: [Nle]AAKGDQLKKEVEALEYENSNLRKKLEDHKKKLTKLKTEISNAKK[Nle]LKQLYASI
- Apparent Tm [15]: 57.5 ° C.
- Apparent Tm [16]: 63.6 ° C.
- Apparent Tm [17]: 52.9 ° C.
- Tm [14]: 57.5 ° C.
- Kd [18]: < 10 nM

B4: biotinylated anti-APCp1 (contains Met instead of Nrl, an additional Leu8Val mutation and Glu-Asp-Glu at the peptide C-terminus) (designed binder)
peptide: {biotin (long spacer arm)}-MAAKGDQVKKEVEALEYENSNLRKKLEDHKKKLTKLKTEISNAKKMLKQLYASIEDE
- binding result [19]: binds
- binding result [20]: binds

B5: fluorescein-labeled anti-APCp1 (designed binder)
peptide: MAAKGDQLKKEVEALEYENSNLRKKLEDHKKKLTKLKTEISNAKKMLKQLYASI
modifications: also: fluorescein label (site not given here)
- Kd (coumarin-labeled APC-55): ≤ 10 nM
